Data from the supplement of paper PMC9170038.

Test system: MS2 coat protein
Assay: apparent KD of MS2 coat protein; higher = weaker reporter binding
Details: Eterna round: R107
Method in brief: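 The designed RNA switches were transcribed on-chip from Illumina sequencing clusters. In 100 mM Tris-HCl pH 7.5, 80 mM KCl and 4 mM MgCl2, without or with constant ligand, they were titrated with SNAP-549-labelled MS2 coat protein from 0.7 or 1.5 nM to 3 µM in twofold steps. Apparent KD is the per-design median of normalised cluster binding-curve fits.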

[1] = input ligand: theophylline 20 uM
[2] = input ligand: theophylline 2 mM
[3] = input ligand: tryptophan 2.4 mM

| Sequence | apparent KD of MS2 coat protein (input ligand: arginine 13.2 mM) | apparent KD of MS2 coat protein (input ligand: none) | apparent KD of MS2 coat protein [1] | apparent KD of MS2 coat protein [2] | apparent KD of MS2 coat protein [3] |
| --- | --- | --- | --- | --- | --- |
| CGUAUGUAGACGGCCGCCACUGGAACCUGAGGAUCACCCAGGUACAGGGUGGGUAACUCGAGAGUCAGGACCGGGUCUACAUACA [Tryp B Ex t3] | 0.0194 µM | 0.042 µM | 0.0651 µM | 0.0643 µM | 0.0386 µM |
| CGUGGUGGGACGGAUACCAGCCACCGCGGCAACGCAACAUGAGGAUCACCCAUGUUGGGUGGCCCUUGGCAGCUGUCCUGCGACG [#1 Same State - Theophylline B Attempt #27 (HarryS)] | 0.0115 µM | 0.0117 µM | 0.0116 µM | 0.0117 µM | 0.0101 µM |
| CUAAGAGUAGGAAGGAGCGACAUGAGGAUCACCCAUGUGGCUCUCAUGGCCCGGGUCUUAUGUCAGGUAGGUCGCCUACUGUUUA [Solave] | 0.0136 µM | 0.0144 µM | 0.0219 µM | 0.0171 µM | 0.0141 µM |
| CUACAUUUGUAGAAACCGGUCAACAAUAAUCGAGGACCGGUACGGCCGCCACUCGAUGUGAAAUACACAUGAGGAUCACCCAUGU [Tryptophan A 13] | 0.0158 µM |  | 0.0191 µM | 0.0199 µM |  |
| CUAGACUGUGCGGCCGCCACUGGCUCAUCCUGCAUUACAUGAGGAUCACCCAUGUUGCGGCCUCCCAGGACCGGGCAUAGUCUGC [Riinzaa] | 0.091 µM |  | 0.474 µM | 0.734 µM |  |
| CUAUAAGUAACUGAUACCAGUGUACUGACAUGAGGAUCACCCAUGUUGGGUUUUGUUGUACACCCUUGGCAGCAGAAUCUUAUAG [AstrosExyTheB#14] | 0.0389 µM | 0.0638 µM | 0.0703 µM | 0.111 µM | 0.0725 µM |
| CUAUAUAUAAGAAGGAGCGACAUGAGGAUCACCCAUGUCUACCACGUCGAAAGACGCUCAUGUCAGGUAGGUCGCUUAUAUAUAG [Astros-Eli-mod1] | 0.108 µM | 0.122 µM | 0.155 µM | 0.139 µM | 0.0939 µM |
| CUAUAUAUAGCGGCCGCCACUUACUCAUGAGGUAACAACAUGAGGAUCACCCAUGUUUGAGGAUCAAGGACCGGGCUAUAUAUAG [AstrosSSTryB#4] | 0.0281 µM |  | 0.0335 µM | 0.0332 µM |  |
| CUCCGAGGCUAUACUAUCCGCCUCAGUGAUACCAGAAUACCUAUAUUCCCUUGGCAGCAUCACAUGAGGAUCACCCAUGUGCCAU [SSTheo A #14] | 0.0134 µM |  | 0.0163 µM |  | 0.0122 µM |
| CUCGGAACAAUCGAUACCAGUUCUCAUGGAUUGCAGCAGUACAUGAGGAUCACCCAUGUAAACCCUUGGCAGCGAAGAACAAGAC [theeternabot_exclusion_MS2_Theo_B_18] | 0.026 µM |  | 0.0482 µM |  | 0.0334 µM |
| CUCUCAUGAACAUGAGGAUCACCCAUGUAACGAGGACCGGUACGGCCGCCACUCGAACGUGGAAACCAAUCGAGUGAGGUGGGAG [Tryp A Ex t5b] | 0.0459 µM | 0.116 µM | 0.0984 µM | 0.119 µM | 0.352 µM |
| CUUACACAUGAGGAUCACCCAUGUCAUGAUACCAGCCAAUACACUGGCCCUUGGCAGCAUCUCAGCCUCAGCUACAUUGACUGAC [theeternabot_sameState_MS2_Theo_A_2] | 0.0189 µM |  | 0.0282 µM |  | 0.0178 µM |
| GAAACGUAGGUGGAGCGGUGAAAUGGCGAUACCAGCGUGGAAACACGCCCUUGGCAGCGUUAGAACAUGAGGAUCACCCAUGUUU [#21 Exclusion-TheophyllineA] | 0.0193 µM |  | 0.0624 µM |  | 0.0264 µM |
| GAAUUUAUAUGAAGGAGCGUCGAAAAUGGGUAAACAUGAGGAUCACCCAUGUAAAGGGAACGACAGGUAGGUCGCAUAUGGAUUC [AstromonsSSArgB#26] | 0.114 µM | 0.175 µM | 0.196 µM | 0.219 µM | 0.197 µM |
